For experiment [1], the target named is T1, oligopeptide ATYPSGHLDM (SEQ ID NO: 1) (human and mouse).
T1 construct: Synthetic peptide; positions 148 to 157 of the human AQP3 polypeptide, identical in mouse; also called peptide used for immunization; oligopeptide 5
T1 peptide: ATYPSGHLDM
Briefly: ELISA on peptide SEQ ID NO:1, IgG, 50% binding response (FIG. 16A). Background: An ELISA detects its analyte on a solid surface through an enzyme-linked reagent.

The target in experiment [2] is T2, human aquaporin 3 (AQP3) on cells (human, UniProt Q92482 1-292).
T2 construct: whole, on cells; Water channel membrane protein; also called human AQP3; AQP3 on HaCaT cells
T2 sequence (looked up): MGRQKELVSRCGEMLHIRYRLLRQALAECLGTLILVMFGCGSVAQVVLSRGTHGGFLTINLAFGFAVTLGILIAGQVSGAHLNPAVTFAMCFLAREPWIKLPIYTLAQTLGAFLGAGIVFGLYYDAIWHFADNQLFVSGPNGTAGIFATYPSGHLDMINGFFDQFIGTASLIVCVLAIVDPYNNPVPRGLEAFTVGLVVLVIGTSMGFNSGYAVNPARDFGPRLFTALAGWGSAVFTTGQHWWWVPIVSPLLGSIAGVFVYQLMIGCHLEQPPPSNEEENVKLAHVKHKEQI
Briefly: fluorescence binding assay on HaCaT cells, 10 µg/mL (FIG. 5C).

Experiment [3] has as its target T3, oligopeptide FATYPSGHLDM (SEQ ID NO: 109).
T3 construct: Synthetic peptide, part of Loop C of AQP3
T3 peptide: FATYPSGHLDM
Briefly: ELISA on coated peptide. The protocol:
(§1) To determine the important amino acid residues of an epitope in Loop C involved in binding to specific AQP3 antibody clones, peptides of varying lengths were produced. The sequences of these peptides are shown in column 2 of Table 4.
(§2) The various peptides and AQP3 antibody clones were subjected to ELISA binding analyses. […] The microtiter wells (Costar 2690) were coated with 50 μL of each peptide at 4° C. overnight. The wells were washed 3 times with PBS and blocked with 100 μL of 1% BSA/PBS at 37° C. for 1 hour. Each antibody was adjusted to 1 μg/mL in 1% SBA/PBS as above then serially diluted 1:5 in 1% BSA/PBS. The blocker was discarded and the wells were incubated with 50 μL of antibodies at 37° C. for 1.5 hours. The wells were washed 3 times with PBS and mouse antibodies were detected with 50 μL of goat anti-mouse IgG (H+L) HRP conjugate (ThermoFisher 31438) (1:5,000 in 1% BSA/PBS) and rabbit antibodies were detected with 50 μL of goat anti-rabbit IgG (H+L) HRP conjugate (ThermoFisher 31462) (1:5,000 in 1% BSA/PBS) at 37° C. for 1 hour. The wells were washed 3 times with PBS and developed with 50 μL of HRP substrate at RT for 5 min then stopped with 50 μL of 2N sulfuric acid and binding was measured with a plate reader.

In experiment [4] the target is T4, oligopeptide ATYPSG (SEQ ID NO: 104).
T4 construct: Synthetic peptide, part of Loop C of AQP3
T4 peptide: ATYPSG
The experiment in a line: ELISA on coated peptide. As to the method:
as §1, §2

The target of experiment [5] is T5, oligopeptide SGHLDM (SEQ ID NO: 99).
T5 construct: Synthetic peptide, part of Loop C of AQP3
T5 peptide: SGHLDM
Briefly: ELISA on coated peptide. As to the method:
as §1, §2

Experiment [6] concerns the target T6, oligopeptide PSGHLDM (SEQ ID NO: 98).
T6 construct: Synthetic peptide, part of Loop C of AQP3
T6 peptide: PSGHLDM
Briefly: ELISA on coated peptide. As to the method:
as §1, §2

The target of experiment [7] is T7, oligopeptide SGPNGTAGIFATYPS (SEQ ID NO: 94).
T7 construct: Synthetic peptide, part of Loop C of AQP3
T7 peptide: SGPNGTAGIFATYPS
Briefly: ELISA on coated peptide. As to the method: as §1, §2

Experiment [8] addresses T8, oligopeptide AGIFATYPSGHLDM (SEQ ID NO: 106).
T8 construct: Synthetic peptide, part of Loop C of AQP3
T8 peptide: AGIFATYPSGHLDM
Briefly: ELISA on coated peptide. The protocol: as §1, §2

The target of experiment [9] is T9, oligopeptide YPSGHLDM (SEQ ID NO: 97).
T9 construct: Synthetic peptide, part of Loop C of AQP3; first diluted in DMSO
T9 peptide: YPSGHLDM
The experiment in a line: ELISA on coated peptide. As to the method:
as §1, §2

The target of experiment [10] is T10, oligopeptide ATYPSGH (SEQ ID NO: 103).
T10 construct: Synthetic peptide, part of Loop C of AQP3
T10 peptide: ATYPSGH
Briefly: ELISA on coated peptide. The protocol: as §1, §2

Experiment [11] deals with T1, oligopeptide ATYPSGHLDM (SEQ ID NO: 1). Briefly: ELISA on coated peptide. The protocol:
as §1, §2

For experiment [12], the target named is T11, oligopeptide GIFATYPSGHLDM (SEQ ID NO: 107).
T11 construct: Synthetic peptide, part of Loop C of AQP3
T11 peptide: GIFATYPSGHLDM
Briefly: ELISA on coated peptide. As to the method: as §1, §2

Experiment [13] addresses T12, oligopeptide TAGIFATYPSGHLDM (SEQ ID NO: 105).
T12 construct: Synthetic peptide, part of Loop C of AQP3
T12 peptide: TAGIFATYPSGHLDM
The experiment in a line: ELISA on coated peptide. The protocol: as §1, §2

The target of experiment [14] is T13, oligopeptide GHLDM (SEQ ID NO: 100).
T13 construct: Synthetic peptide, part of Loop C of AQP3
T13 peptide: GHLDM
Briefly: ELISA on coated peptide. The protocol: as §1, §2

Experiment [15] has as its target T14, oligopeptide TYPSGHLDM (SEQ ID NO: 96).
T14 construct: Synthetic peptide, part of Loop C of AQP3
T14 peptide: TYPSGHLDM
Briefly: ELISA on coated peptide. The protocol: as §1, §2

Experiment [16] has as its target T15, oligopeptide ATYPSGHL (SEQ ID NO: 102).
T15 construct: Synthetic peptide, part of Loop C of AQP3
T15 peptide: ATYPSGHL
Briefly: ELISA on coated peptide. The protocol: as §1, §2

The target of experiment [17] is T16, oligopeptide ATYPSGHLD (SEQ ID NO: 101).
T16 construct: Synthetic peptide, part of Loop C of AQP3
T16 peptide: ATYPSGHLD
Briefly: ELISA on coated peptide. The protocol: as §1, §2

For experiment [18], the target named is T17, oligopeptide IFATYPSGHLDM (SEQ ID NO: 108).
T17 construct: Synthetic peptide, part of Loop C of AQP3
T17 peptide: IFATYPSGHLDM
The experiment in a line: ELISA on coated peptide. The protocol: as §1, §2

The target in experiment [19] is T18, mouse aquaporin 3 (AQP3) on cells (mouse, UniProt Q8R2N1 1-292).
T18 construct: whole, on cells; Water channel membrane protein; also called mouse AQP3; AQP3 on PAM212 cells
T18 sequence (looked up): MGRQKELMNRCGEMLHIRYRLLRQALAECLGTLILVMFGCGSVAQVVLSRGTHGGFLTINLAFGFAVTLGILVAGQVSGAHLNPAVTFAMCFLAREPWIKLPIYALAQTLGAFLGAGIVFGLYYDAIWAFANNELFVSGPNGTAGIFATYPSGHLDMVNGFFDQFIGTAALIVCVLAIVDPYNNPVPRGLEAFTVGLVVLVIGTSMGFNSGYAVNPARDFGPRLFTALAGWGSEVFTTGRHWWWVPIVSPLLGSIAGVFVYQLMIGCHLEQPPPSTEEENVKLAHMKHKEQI
The experiment in a line: fluorescence binding assay on PAM212 cells, 10 µg/mL (FIG. 5B). As to the method: PAM212 and macrophage cells were reacted with each anti AQP3 antibody (0.1, 1, or 10 μg/mL) at 4° C. for 1 hour. After washing the cells, a fluorescent-labeled secondary antibody was added and the reaction was allowed to occur additionally for 1 hour (4° C.). By measuring the fluorescence intensity, the binding property of each anti AQP3 antibody to cells was obtained.
The assay was also performed using PAM212 cells and antibodies A, B, C, D, E, F, G, H, and J at a concentration of 10 μg/mL. Binding of antibodies C, D, E, G, and J to PAM212 cells was statistically significant.

Experiment [20] addresses T19, mouse AQP3 in lysate of HEK293T cells overexpressing mouse AQP3 and a myc-biotinylated tag (mouse, UniProt Q8R2N1 1-292).
T19 construct: Cell lysate used in ELISA; also called AQP3 containing cell lysate; not shown: myc-biotinylated tag
T19 sequence (looked up): T18 sequence (looked up)
Briefly: ELISA on lysate of HEK293T cells overexpressing mouse AQP3 (FIG. 3). From the text: Cell lysate from HEK293T cells overexpressing mouse AQP3 and a myc-biotinylated tag was used in an ELISA assay to measure the binding of antibodies A, B, C, D, E, F, G, H, J, and K to AQP3. Cell lysate from HEK293T cells overexpressing the myc-biotinylated tag but not AQP3 was used as control. […] C. Antibody binding to AQP3 expressing cells

In general, EC50 refers to the concentration at which the effect is half-maximal. Higher therefore signals a less potent agent.

B1: Antibody C (antibody, mouse IgG2a, kappa, V domains shown)
VH: QVQLKQSGAELARPGASVKLSCKASGYNFKSYGISWVKQRTGQGLEWIGEIYPGSGNTYYNEKLKGKATLTADKSSSTAYMELRSLTSEDSAVYFCARTYGYDSFPWFAYWGQGTLVTVSS
VL: DIVMTQAAPSVPVTPGESVSISCRSSKSLLHSNGNTYLYWFLQRPGQSPQLLIYRVSNLASGVPDRFSGSGSGTAFTLRISRVEAEDEGVYYCMQHLEYPFTFGAGTKLEIKR
notes: also called anti AQP3 antibody C
Take B1: in experiment [1], the EC50 is about 0.1 µg/mL. Also, the binding result in experiment [2], in experiment [19] and in experiment [20] was “binds” in each case. Moreover, the “binding signal (plate reader)” value in experiment [3] stood at 2.8; in [4], 0.044; in experiment [5], 0.048; in experiment [6], 0.271; in experiment [7], 0.045; in experiment [8], 2.97. For the same molecule, the “binding signal (plate reader)” value in [9] was 1.58; in [10] it was 0.047; in [11], 2.21; in [12], 2.92; in experiment [13], 2.81; in experiment [14], 0.043. Also, the “binding signal (plate reader)” value in [15] came out at 1.79; in [16], 1.69; in experiment [17], 2.52; in [18], 2.8.

The values are drawn from patent US20220298237A1 (KEIO UNIVERSITY, published 2022).
